{"source": "patent US20210100858A1", "target": "Epidermal growth factor receptor (EGFR) on HT29 human colon adenocarcinoma cells (human) (UniProt P00533)", "test": "cell-based or functional assay", "data": [{"substance": "Hi-D::EGF phage (λF7 phage with maximal EGF surface decoration, generated using SupD E. coli host at 37° C.) (from UniProt P03712 1-110)", "values": [{"measurement": "EOP of phage recovered from HT29 spheroids, intercellular, 30 min", "value": 0.00156, "unit": "EOP"}, {"measurement": "EOP of phage recovered from HT29 spheroids, intercellular, 4 h", "value": 0.0572, "unit": "EOP"}, {"measurement": "EOP of phage recovered from HT29 spheroids, intercellular, 8 h", "value": 0.0183, "unit": "EOP"}, {"measurement": "EOP of phage recovered from HT29 spheroids, intercellular, 24 h", "value": 0.0113, "unit": "EOP"}, {"measurement": "EOP of phage recovered from lysed HT29 cells, intracellular, 30 min", "value": 0.00013, "unit": "EOP"}, {"measurement": "EOP of phage recovered from lysed HT29 cells, intracellular, 4 h", "value": 0.00392, "unit": "EOP"}, {"measurement": "EOP of phage recovered from lysed HT29 cells, intracellular, 8 h", "value": 0.00147, "unit": "EOP"}, {"measurement": "EOP of phage recovered from lysed HT29 cells, intracellular, 24 h", "value": 0.000312, "unit": "EOP"}, {"measurement": "HT29 spheroid diameter on day 20, 10^4 PFU phage", "value": 1330, "unit": "µm"}, {"measurement": "HT29 spheroid diameter on day 20, 10^8 PFU phage", "value": 422, "unit": "µm"}, {"measurement": "recovery of phage particles from the interstitial spaces and within cells at 30 min, against wildtype phages", "value": 150, "unit": "fold"}, {"measurement": "size of HT29 spheroids on day 20 against control spheroids, high concentration of phage", "value": 3, "unit": "fold"}]}]}
